According to article PMC11897886 (Nucleic Acids Research, 2024):

T1: CBP-Upf1-CH-HD (S. cerevisiae, UniProt P30771 54-851)
T1 sequence: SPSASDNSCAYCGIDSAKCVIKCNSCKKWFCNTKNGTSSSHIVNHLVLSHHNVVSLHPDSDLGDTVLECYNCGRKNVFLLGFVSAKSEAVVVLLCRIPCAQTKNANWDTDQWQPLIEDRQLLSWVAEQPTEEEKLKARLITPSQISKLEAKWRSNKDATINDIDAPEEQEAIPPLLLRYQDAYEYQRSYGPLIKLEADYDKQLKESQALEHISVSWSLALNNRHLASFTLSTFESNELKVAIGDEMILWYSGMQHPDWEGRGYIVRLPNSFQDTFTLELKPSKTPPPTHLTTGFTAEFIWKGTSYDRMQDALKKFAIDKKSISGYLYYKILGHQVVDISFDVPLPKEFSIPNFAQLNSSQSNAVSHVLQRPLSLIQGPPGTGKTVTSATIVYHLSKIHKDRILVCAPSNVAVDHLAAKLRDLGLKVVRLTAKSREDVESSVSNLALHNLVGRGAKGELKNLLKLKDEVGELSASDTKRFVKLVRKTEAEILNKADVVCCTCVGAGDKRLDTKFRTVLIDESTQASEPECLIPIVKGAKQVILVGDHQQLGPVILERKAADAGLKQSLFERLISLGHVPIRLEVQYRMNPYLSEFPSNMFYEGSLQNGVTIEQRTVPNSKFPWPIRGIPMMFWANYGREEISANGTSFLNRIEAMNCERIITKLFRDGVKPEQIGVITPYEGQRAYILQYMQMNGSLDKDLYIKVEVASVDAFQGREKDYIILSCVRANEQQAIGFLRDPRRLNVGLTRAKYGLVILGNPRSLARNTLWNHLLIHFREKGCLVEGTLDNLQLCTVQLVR

T2: CBP-Upf1-FL (S.c. Upf1 full-length) (S. cerevisiae, UniProt P30771 1-971)
T2 sequence: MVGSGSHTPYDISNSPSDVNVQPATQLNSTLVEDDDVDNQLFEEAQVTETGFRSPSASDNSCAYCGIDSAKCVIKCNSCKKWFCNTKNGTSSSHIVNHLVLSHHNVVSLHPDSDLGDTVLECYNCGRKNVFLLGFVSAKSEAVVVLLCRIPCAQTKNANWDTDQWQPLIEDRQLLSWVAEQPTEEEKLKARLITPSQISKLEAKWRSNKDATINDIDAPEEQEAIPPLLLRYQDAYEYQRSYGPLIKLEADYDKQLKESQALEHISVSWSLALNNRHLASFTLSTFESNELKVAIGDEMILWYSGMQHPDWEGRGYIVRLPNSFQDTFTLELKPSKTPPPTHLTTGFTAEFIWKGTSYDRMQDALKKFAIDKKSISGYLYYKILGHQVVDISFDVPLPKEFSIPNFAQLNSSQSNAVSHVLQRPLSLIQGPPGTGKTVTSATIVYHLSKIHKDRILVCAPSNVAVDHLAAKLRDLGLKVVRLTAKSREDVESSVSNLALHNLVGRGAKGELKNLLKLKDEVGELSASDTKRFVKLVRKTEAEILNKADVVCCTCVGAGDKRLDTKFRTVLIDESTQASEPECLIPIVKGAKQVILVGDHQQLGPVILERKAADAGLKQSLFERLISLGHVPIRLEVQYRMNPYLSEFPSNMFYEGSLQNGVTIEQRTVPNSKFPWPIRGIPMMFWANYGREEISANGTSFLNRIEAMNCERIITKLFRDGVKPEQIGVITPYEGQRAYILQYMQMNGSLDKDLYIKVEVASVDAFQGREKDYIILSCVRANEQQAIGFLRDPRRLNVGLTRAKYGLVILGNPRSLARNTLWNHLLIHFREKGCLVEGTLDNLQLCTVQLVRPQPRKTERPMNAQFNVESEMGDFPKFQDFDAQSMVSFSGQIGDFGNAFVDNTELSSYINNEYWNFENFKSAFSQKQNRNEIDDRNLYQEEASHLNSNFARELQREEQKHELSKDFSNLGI

T3: CBP-Upf1-HD-Ct (S. cerevisiae, UniProt P30771 221-971)
T3 sequence: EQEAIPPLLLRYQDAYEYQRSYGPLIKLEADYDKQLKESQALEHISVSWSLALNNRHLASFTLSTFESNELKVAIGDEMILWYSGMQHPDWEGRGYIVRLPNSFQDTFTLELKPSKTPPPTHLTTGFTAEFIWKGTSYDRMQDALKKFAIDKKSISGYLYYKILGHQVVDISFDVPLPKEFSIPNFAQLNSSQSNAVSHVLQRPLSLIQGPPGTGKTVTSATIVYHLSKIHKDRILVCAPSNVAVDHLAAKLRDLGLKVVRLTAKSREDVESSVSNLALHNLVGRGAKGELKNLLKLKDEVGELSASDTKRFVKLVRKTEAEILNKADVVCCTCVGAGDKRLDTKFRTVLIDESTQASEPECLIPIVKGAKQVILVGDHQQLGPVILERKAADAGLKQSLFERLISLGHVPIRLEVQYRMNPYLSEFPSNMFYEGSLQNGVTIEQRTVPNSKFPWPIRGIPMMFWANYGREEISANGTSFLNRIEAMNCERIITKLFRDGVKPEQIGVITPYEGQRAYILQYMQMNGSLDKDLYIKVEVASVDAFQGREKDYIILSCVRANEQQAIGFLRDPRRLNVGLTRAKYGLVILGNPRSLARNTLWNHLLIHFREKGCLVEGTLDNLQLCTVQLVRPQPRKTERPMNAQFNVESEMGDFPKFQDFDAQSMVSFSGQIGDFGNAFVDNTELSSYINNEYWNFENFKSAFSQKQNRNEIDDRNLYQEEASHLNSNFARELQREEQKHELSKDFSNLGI

T4: CBP-Upf1-HD (S. cerevisiae, UniProt P30771 221-851)
T4 sequence: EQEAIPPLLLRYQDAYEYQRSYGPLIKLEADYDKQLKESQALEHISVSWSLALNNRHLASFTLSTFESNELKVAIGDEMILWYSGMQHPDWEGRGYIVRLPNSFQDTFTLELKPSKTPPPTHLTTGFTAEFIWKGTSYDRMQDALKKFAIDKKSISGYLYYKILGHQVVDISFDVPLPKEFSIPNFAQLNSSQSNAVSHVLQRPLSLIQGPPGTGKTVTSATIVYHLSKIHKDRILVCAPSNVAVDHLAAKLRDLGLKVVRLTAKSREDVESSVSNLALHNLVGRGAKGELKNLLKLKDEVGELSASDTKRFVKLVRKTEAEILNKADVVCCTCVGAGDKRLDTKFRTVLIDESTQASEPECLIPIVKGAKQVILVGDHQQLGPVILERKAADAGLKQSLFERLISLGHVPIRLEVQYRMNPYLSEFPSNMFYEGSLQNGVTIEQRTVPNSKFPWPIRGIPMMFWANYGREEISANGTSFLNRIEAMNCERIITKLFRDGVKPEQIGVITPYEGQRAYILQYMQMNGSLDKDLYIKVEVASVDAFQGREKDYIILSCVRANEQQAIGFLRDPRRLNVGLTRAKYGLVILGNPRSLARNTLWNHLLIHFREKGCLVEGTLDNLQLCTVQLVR

B1: GST-Dcp2-UBM1 (aa 434-508) (domain or fragment)
chain: GYSSSSPGQLLDILNSKKPDSNVQSSKKPKLKILQRGTDLNSIKQNNNDETAHSNSQALLDLLKKPTSSQKIHAS
B2: GST-tagged full-length Dcp1 (aa 1-231) (natural protein)
chain: MTGAATAAENSATQLEFYRKALNFNVIGRYDPKIKQLLFHTPHASLYKWDFKKDEWNKLEYQGVLAIYLRDVSQNTNLLPVSPQEVDIFDSQNGSNNIQVNNGSDNSNRNSSGNGNSYKSNDSLTYNCGKTLSGKDIYNYGLIILNRINPDNFSMGIVPNSVVNKRKVFNAEEDTLNPLECMGVEVKDELVIIKNLKHEVYGIWIHTVSDRQNIYELIKYLLENEPKDSFA
B3: GST-Dcp1/Dcp2-S heterodimer (complex)
chain 1: B2 chain
chain 2: MSLPLRHALENVTSVDRILEDLLVRFIINCPNEDLSSVERELFHFEEASWFYTDFIKLMNPTLPSLKIKSFAQLIIKLCPLVWKWDIRVDEALQQFSKYKKSIPVRGAAIFNENLSKILLVQGTESDSWSFPRGKISKDENDIDCCIREVKEEIGFDLTDYIDDNQFIERNIQGKNYKIFLISGVSEVFNFKPQVRNEIDKIEWFDFKKISKTMYKSNIKYYLINSMMRPLSMWLRHQRQIKNEDQLKSYAEEQLKLLLGITKEEQIDPGRELLNMLHTAVQANSNNNAVSNGQVPSSQELQHLKEQSGEHNQQK
B4: TS-Nmd4-His (full-length Nmd4, aa 1-218) (natural protein)
chain: MTQYNFIIDASAFEKGLGNIKRWCSDCTEAVTLNFYIPTFTLNELDFLQQRRKSFAARESLKFIDRLDDSKFANLKVFIEFPEVLDIILWSDVMEHNDSSGKINIAKLPKRLKNLLKSCIYKCYLEGNEGLHWFLISEDPQIREMAMQCNIPSCSIVDVDSILSKDMNDKSFRESEKFNNMMLKNGTKEESENGREIIRTNFNKTVYASRGTGELWSP
B5: GST-Dcp2-UBM (aa 434-720) (domain or fragment)
chain: GYSSSSPGQLLDILNSKKPDSNVQSSKKPKLKILQRGTDLNSIKQNNNDETAHSNSQALLDLLKKPTSSQKIHASKPDTSFLPNDSVSGIQDAEYEDFESSSDEEVETARDERNSLNVDIGVNVMPSEKDSRRSQKEKPRNDASKTNLNASAESNSVEWGPGKSSPSTQSKQNSSVGMQNKYRQEIHIGDSDAYEVFESSSDEEDGKKLEELEQTQDNSKLISQDILKENNFQDGEVPHRDMPTESNKSINETVGLSSTTNTVKKVPKVKILKRGETFASLANDKKA
B6: GST-Ebs1 (aa 1-591) (domain or fragment)
chain: MEPSNTQKEDLPTAFNGIKSQLNSILKSNQLFQDYALLNGFLAFVHSKLNAAILTSIESQCGKSFAADLDSFDQSSISSILDFSWESVHYPIFKWFQMWRNYILFEKENKKQQTKFIDFRKMNSKMLKFFKTVQNFYVNVINTVYKKYDISVLLPKRIIQDLKLSDIENTTNVGDILAVKTFNSSSPLAHLIPTLFHRCLLFLGTAYRYKTLLEEISNKYSISNFKKSLDFFRLASLVLPSAGETYSQAGAIFLQTGNLGIAVFNFVKGMMTKMPSPVSIKNFGALMVDNKSSLNRSLHTTIMNTYLQESKGPRTPAKEILEFYFLGLFGSVWSPTSWRDDTKPNQLNNGIKLRHLENALYETMSARYLNNIKTIFHNLIITIGGFHLLLKRRSDVSAKTLKDLRSNELDYLNFAFKYIAHILNDIVKESWSENPEVSEILGMVRIINCWIKANPMVLQYSQSNLEFVNALAYLINDIVKKKPSPSFSITEHIPKRTYWFEEDLMVKGLSFVNFQLSDFDDYEKILEMDHSLDRLIGNPPLCDKLSASSEMLLRLQAVVNISSQLLQNNNCGVEWSDNKSRYIFNKKIGFK
B7: HisSUMO-tagged Ebs1 (aa 1-591) (domain or fragment)
chain: B6 chain

These binders were tested against T1, CBP-Upf1-CH-HD (assay: pull-down).
B1: binds. B2: binds. B3: binds. VGLSSTTNTVKKVPKVKILKRGETFASLANDKKA (domain or fragment) [GST-Dcp2-UBM2 (aa 687-720)]: binds. B4: binds. B5: binds.

These binders were tested against T2, CBP-Upf1-FL (S.c. Upf1 full-length) (assay: pull-down).
B1: binds. B2: binds. B3: binds. B6: binds. B7: binds. VGLSSTTNTVKKVPKVKILKRGETFASLANDKKA (domain or fragment) [GST-Dcp2-UBM2 (aa 687-720)]: binds. B4: binds. B5: binds.

Each binder was assayed against T3, CBP-Upf1-HD-Ct (assay: pull-down).
B2: binds. B3: binds. B4: binds.

Each binder was assayed against T4, CBP-Upf1-HD (assay: pull-down).
B2: binds. B3: binds. B4: binds.
